Measurements as given in US6685912B2, “Post-labeling stabilization of radiolabeled proteins and peptides” (Rhomed Incorporated, priority 1996, dated 2004).

What was measured:
Assay type in all cases: physicochemical
[1] = Elution of Re-188-RC-160 from C18 SepPak columns (step-gradient of acidified ethanol) after adding post-labeling compounds
[2] = Cysteine displacement of Re-188 from Re-188-RC-160 (ITLC); conditions: addition of the ascorbate post-labeling
Experimental: Radiolabeling kits were prepared using aseptic techniques, with each kit prepared in a 10 ml serum vial using a 2 ml liquid fill. The liquid fill contained 200 μg of RC-160 peptide in 45 mM sodium potassium tartrate, 10 mM potassium hydrogen phthalate buffer, pH 5.0, in 5 mM stannous tartrate with 1% maltose added as a freeze-drying excipient. Each kit contained a maximum of 1.19 μg of tin. After filling, the vials were lyophilized, the head space gas filled with nitrogen, and the vials stoppered and crimped. Lyophilized vials were then stored refrigerated at 2-80C. To label a kit, 4-5 ml of 188Re-perrhenate solution containing 10-100 mCi was added to the kits, and the kits then heated in a boiling water bath for 30-45 minutes. Following a brief cooling period, 2 ml of ascorbic acid for Injection, U.S.P., was added to the labeled kit through a 0.22 micron filter. […] The amount of displacement was expressed as % of total radioactivity at the solvent front. […] Selected organs as shown in FIG. 4 were resected and weighed and the associated radioactivity was determined as a percentage of injected dose pr gram of tissue. The percent dose from blood, bone and muscle was calculated assuming 7, 8.2 and 40% of total body weight for these tissues. […]

[3] = Elution of Re-188-RC-160 from C18 SepPak columns (step-gradient of acidified ethanol) after adding post-labeling compounds; remark: listed apart in the source
Experimental: FIG. 1B is an elution profile of Re-188-RC-160 from a C18-SepPak column using a step-gradient of acidified ethanol.
(§1) Radiolabeling kits were prepared using aseptic techniques, with each kit prepared in a 10 ml serum vial using a 2 ml liquid fill. The liquid fill contained 200 μg of RC-160 peptide in 45 mM sodium potassium tartrate, 10 mM potassium hydrogen phthalate buffer, pH 5.0, in 5 mM stannous tartrate with 1% maltose added as a freeze-drying excipient. Each kit contained a maximum of 1.19 μg of tin. After filling, the vials were lyophilized, the head space gas filled with nitrogen, and the vials stoppered and crimped. Lyophilized vials were then stored refrigerated at 2-80C. To label a kit, 4-5 ml of 188Re-perrhenate solution containing 10-100 mCi was added to the kits, and the kits then heated in a boiling water bath for 30-45 minutes. Following a brief cooling period, 2 ml of ascorbic acid for Injection, U.S.P., was added to the labeled kit through a 0.22 micron filter. Two types of parenteral ascorbate were used with similar results, Ascorbic Acid for Injection, U.S.P., 500 mg/2 ml, and Ascorvit™ (a preparation of ascorbate) 100 mg (Jenapharm, Germany). In this study, RC-160 was radiolabeled at pH 5.0 for 30 minutes at 90° C. and ascorbate was added postlabeling. The temperature effect is shown in FIGS. 2A and 2B: 19 minutes for 37° C. and 21 minutes for 900C. Also shown in FIG. 1B is an elution profile of Re-188-RC 160 from a C18 column using a step-gradient of acidified ethenol. […] FIG. 6. […] FIG. 7 and FIGS. 1A and 1B. […] Briefly, aliquots of 100 μl cysteine dissolved in phosphate buffer saline (pH 7.4 with 1 M NaOH) were diluted in separate microfuge tubes to result in a doubling dilution. 100 μl of Re188-RC-160 was added to each tube and mixed by inversion. The samples were incubated at 45 minutes at 37° C. or 90° C. A 10 μl aliquot of each sample was then spotted on heat-treated ITLC strip and chromatographed in PBS, pH 7.4 until the solvent was 0.5 cm from the strip top. The amount of displacement was expressed as % of total radioactivity at the solvent front. The results for two experiments conducted respectively at 37° and 90° C. are shown at FIG. 3. In a related manner, comparative biodistribution profiles of Re-188-RC-160 at 2 hours post injection into the tail vein of adult, female BALB/c mice (≈25 g weight) (n≧5/group) with each animal receiving 0.2 ml containing approximately 4 μCi. Selected organs as shown in FIG. 4 were resected and weighed and the associated radioactivity was determined as a percentage of injected dose pr gram of tissue. The percent dose from blood, bone and muscle was calculated assuming 7, 8.2 and 40% of total body weight for these tissues. 37° C. and 90° C. were the two temperatures at which radio labeling was performed.

[4] = Labeling efficiency of Re-188-RC-160 with ascorbic acid present during labeling (C18 SepPak, RP-HPLC, TLC)
Description: The results obtained by analytical RP-HPLC were confirmed by TLC studies and by isocratic elutions from C-18 SepPak columns. […] The RP-HPLC results were confirmed by TLC. […] The addition of ascorbate, or ascorbate/sulfite solutions, maximized the reduction of the peptide RC-160, which is present in excess, without compromising ^188Re-RC-160. The radiolabeling kit could be formulated with an excess of stannous ions and RC-160 to accommodate a variety of labeling situations. In the presence of ^188Re, the RC-160 and stannous ions interact to result in what is believed to be metal-cyclized ^188Re-RC-160. […] Since ^188Re is produced essentially carrier-free from a 188W/^188Re generator, it is hypothesized that excess stannous ions will reduce the RC-160 not complexed to ^188Re. […] The net result is a stable radiolabeled peptide with a very high specific activity.

[5] = Post-labeling stability of radiolabeled RC-160 (uncoupling of isotope) by TLC and RP-HPLC
Experimental: as §1

[6] = post-labeling sodium bisulfite (1 mg/ml, pH 5.5)
[7] = post-labeling sodium sulfite (1 mg/ml, pH 7.4)
[8] = post-labeling Ascorbate for Injection, USP
[9] = post-labeling Ascorvit formulation
[10] = post-labeling ascorbate (50 mg/ml, pH 6.0)
[11] = NO ASCORBATE during labeling, 20 mCi Re-188
[12] = PLUS ASCORBATE: 400 μg ascorbic acid introduced along with the Re-188, 20 mCi

In the case of “Re-188-RC-160: RC-160, cyclic somatostatin analogue D-Phe-Cys-Tyr-D-Trp-Lys-Val-Cys-Trp-NH2, radiolabeled with 188Re using stannous kit”, the “% of total radioactivity assayed, 80-100% ethanol fraction” value ([1]; post-labeling SALINE) is reported as 4.0%, the “% of total radioactivity assayed, 40-60% ethanol fraction” value [1, 6] is reported as 94.0% and the “% of total radioactivity assayed, 80-100% ethanol fraction” value [1, 6] is reported as 1.8%. For the same substance, the “% of total radioactivity assayed, retained on column” value [1, 6] was 3.3%, the “% of total radioactivity assayed, 40-60% ethanol fraction” value [1, 7] was 35.8% and the “% of total radioactivity assayed, 80-100% ethanol fraction” value [1, 7] was 3.8%. The “Re-peptide bond strength (cysteine displacement)” value [2] was “not altered”, the “% of total radioactivity assayed, 0-20% ethanol fraction” value [3, 8] was 0.7% and the “% of total radioactivity assayed, 40-60% ethanol fraction” value [3, 8] was 91.5%. The “% of total radioactivity assayed, 80-100% ethanol fraction” value [3, 8] was 1.3%, the “% of total radioactivity assayed, retained on column” value [3, 8] was 6.6% and the “% of total radioactivity assayed, 0-20% ethanol fraction” value [3, 9] was 1.0%. For the same substance, the “% of total radioactivity assayed, 40-60% ethanol fraction” value [3, 9] was 94.0%, the “% of total radioactivity assayed, 80-100% ethanol fraction” value [3, 9] was 1.8% and the “% of total radioactivity assayed, retained on column” value [3, 9] was 3.3%. For the same substance, the “% of total radioactivity assayed, 0-20% ethanol fraction” value ([3]; post-labeling SALINE) was 0.8%, the “% of total radioactivity assayed, 40-60% ethanol fraction” value ([3]; post-labeling SALINE) was 85.4% and the “% of total radioactivity assayed, retained on column” value ([3]; post-labeling SALINE) was 9.7%. The “% of total radioactivity assayed, 0-20% ethanol fraction” value [3, 10] was 0.7%, the “% of total radioactivity assayed, 40-60% ethanol fraction” value [3, 10] was 96.4% and the “% of total radioactivity assayed, 80-100% ethanol fraction” value [3, 10] was 0.9%. For the same substance, the “% of total radioactivity assayed, retained on column” value [3, 10] was 1.8%, the “% of total radioactivity assayed, 0-20% ethanol fraction” value [3, 6] was 1.0% and the “% of total radioactivity assayed, 0-20% ethanol fraction” value [3, 7] was 7.0%. For the same substance, the “% of total radioactivity assayed, retained on column” value [3, 7] was 3.5%, the “% of total radioactivity” value [4, 11] was 2.1% and the “% of total radioactivity, 10% ethanol” value [4, 11] was 0.9%. For the same substance, the “% of total radioactivity, 85% ethanol” value [4, 11] was 97.0%, the “% of total radioactivity” value [4, 12] was 1.4% and the “% of total radioactivity, 10% ethanol” value [4, 12] was 52.4%. The “% of total radioactivity, 85% ethanol” value [4, 12] was 46.2%, the stabilization post-labeling ([5]; 50 mg/ml ascorbate compared with 250 mg/ml of ascorbate) was “yielded the same results” and the “free rhenium in HPLC profile” value ([5]; 30 hours post-labeling, 65 mCi of 188Re, ascorbate added after labeling) was “very little free rhenium could be found”. For the same substance, the stability post-labeling ([5]; ascorbate not added, TLC, confirmed by RP-HPLC) was “stable for only up to two hours post-labeling”, the “stability post-labeling (uncoupling of 188Re from the peptide)” value ([5]; post-labeling addition of ascorbate) was “essentially eliminate the uncoupling and stabilize” and the stabilization post-labeling ([5]; sodium sulfite (1 mg/ml pH 7.4), sodium bisulfite (1 mg/ml, pH 5.5), or mixtures of ascorbate with sodium sulfite, sodium bisulfite or EDTA) was “also effective in stabilizing”.
